Measurements: paper PMC3836734

Target: Fc neonatal receptor (FcRn) (human (endogenous in HEC-1A)) (UniProt P55899)
UniProt P55899, sequence (P55899 whole entry, looked up, tested part not stated): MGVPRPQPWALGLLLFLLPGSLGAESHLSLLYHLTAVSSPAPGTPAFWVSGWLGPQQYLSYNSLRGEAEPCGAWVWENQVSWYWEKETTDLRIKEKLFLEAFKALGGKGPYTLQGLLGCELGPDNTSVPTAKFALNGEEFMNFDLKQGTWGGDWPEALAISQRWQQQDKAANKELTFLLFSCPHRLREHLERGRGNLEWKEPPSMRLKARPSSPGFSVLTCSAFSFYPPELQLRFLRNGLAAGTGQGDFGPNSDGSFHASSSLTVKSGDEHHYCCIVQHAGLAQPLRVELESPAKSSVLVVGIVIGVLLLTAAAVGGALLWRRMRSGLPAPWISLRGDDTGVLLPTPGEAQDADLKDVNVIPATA

mAb VRC01, IgG1 (antibody)
transcytosis of IgG alone (50 µg/ml) across HEC-1A cells, IgG in subnatant fluid by ELISA after 12 hours; about 0.4% at pH 7.4: 1.3%
